Experimental data reported in patent publication US20080260789A1.

How the values were obtained:
[1] = target: α-subunit of the P. americana high conductance calcium-activated potassium channel (pSlo) (Periplaneta americana); test: cell-based or functional assay
[2] = target: Cav channels of P. americana DUM neurons (Periplaneta americana); test: cell-based or functional assay

Substance: rU-ACTX-Hv1a (peptide)
- IC50 of block of pSlo currents in HEK293 cells, whole-cell patch clamp [1]: 579 nM
- IC50 of block of Cav currents in DUM neurons, whole-cell patch clamp [2]: 0.409 µM
